Measurements taken from paper PMC8264439.
Read-outs that look alike come from different tables or passages of the source.

Key:
Assay in all cases: SEC; analytical Superdex 200 increase 10/300 GL; 180 μM protein in 50 μL injected; 20 mM Hepes (pH 7.5); 0.75 ml/min; 25°C; dimer to monomers
[1] = target: SARS-CoV-2 3CLpro C145S variant (SARS-CoV-2)
[2] = target: SARS-CoV-2 3CLpro C145S variant (SARS-CoV-2); remark: listed apart in the source
[3] = target: SARS-CoV-2 3CLpro C145A variant (SARS-CoV-2)
[4] = target: SARS-CoV-2 3CLpro C145A variant (SARS-CoV-2); remark: listed apart in the source
[5] = target: SARS-CoV-2 3CLpro H41E variant (SARS-CoV-2)
[6] = target: SARS-CoV-2 3CLpro H41A variant (SARS-CoV-2)
[7] = target: SARS-CoV-2 3CLpro H41D variant (SARS-CoV-2)

“SARS-CoV-2 3CLpro C145S variant (enzyme)” was tested, and the stoichiometry N [1] was greater than 2 and the stoichiometry N [2] was 2.
“SARS-CoV-2 3CLpro C145A variant (enzyme)” gave a stoichiometry N [3] of 2 and a stoichiometry N [4] greater than 2.
In the case of SARS-CoV-2 3CLpro H41E variant (enzyme), the stoichiometry N [5] is reported as 2.
SARS-CoV-2 3CLpro H41A variant (enzyme) was tested, and the stoichiometry N [6] was 2.
For SARS-CoV-2 3CLpro H41D variant (enzyme), the stoichiometry N [7] was 2.
